# Measured values reported in patent publication US9023767B2, “γ-Secretase substrates and methods of use” (Memorial Sloan-Kettering Cancer Center, priority 2009, dated 2015).
# Where a SMILES comes first, the peptide text is derived from it. [ ]: non-standard residue; d: D form. The star is where a group is joined. Biotin = O=C1N[C@H]2[C@H](CS[C@H]2CCCCC(=O)*)N1; Bpa = N[C@@H](Cc1ccc(C(=O)c2ccccc2)cc1)C(=O)O; Sta = CC(C)C[C@H](N)[C@@H](O)CC(=O)O; Isovaleryl = CC(C)CC(=O)*
# B1: S3: AviTag substrate from Aβ17 with C-terminal tail of APP and FLAG (protein, listed as Homo sapiens)
# chain: GLNDIFEAQKIEWHELVFFAEDVGSNKGAIIGLMVGGVVIATVIVITLVMLKKKQYTSIHHGVVEVDAAVTPEERHLSKMQQNGYENPTYKFFEQMQNDYKDDDDK
# B2: Sb4: biotinylated AviTag-APP695(620-695) recombinant substrate (protein, listed as Homo sapiens)
# chain: GLNDIFEAQKIEWHEVGSNKGAIIGLMVGGVVIATVIVITLVMLKKKQYTSIHHGVVEVDAAVTPEERHLSKMQQNGYENPTYKFFEQMQN
# modifications: biotinylated
# notes: biotinylated AviTag-APP695(620-695) recombinant substrate
# Legend:
# [1] = biological target: T1, γ-secretase (Homo sapiens (Human), UniProt P49768+Q92542); test: Photoaffinity labeling of γ-secretase in HeLa membrane by Aβ17-23BPA20-biotin; format: binding; settings: probe 300 nM
# Method: FIG. 4. […] Various concentrations of inhibitor were incubated with APP substrate (S4) or Notch peptide substrate containing the C-terminal biotinylated transmembrane domain of Notch1 and HeLa cell membrane in the presence of 0.25% CHAPSO. Aβ40 was detected by G2-10 antibody. The cleaved Notch product was detected by Val1744 antibody that specifically recognizes the cleaved product between Gly1743 and Val1744. Activities are expressed as percentage relative to reading that was produced in DMSO control. […] Various concentrations of S4 substrate were incubated with HeLa membrane in fixed concentrations of inhibitor as indicated. The double reciprocal velocity (1/v) and substrate concentrations (1/S) are plotted to determine the type of inhibition. […] Assays were conducted as described in FIG. 4A. […] The labeled samples were solubilized with RIPA buffer. Biotinylated proteins were captured with streptavidin-agarose and probed by immunoblotting using antibodies against biotin, PS1-CTF, PS1-NTF, Nicastrin, PEN-2 and APH-1a. HeLa cell membrane proteins were directly loaded onto lanes indicated by an arrow in the PEN-2 and APH-1a blots as positive controls. […] Upper panel: PS1-NTF; Lower panel: PS1-CTF.
# The labeled proteins were eluted with 2×SDS sample buffer and analyzed with Western blotting using antibodies against the components of γ-secretase complex. Protein concentration was determined with the Dc protein assay kit (Bio-Rad)
# After the photolyzed membranes were solubilized, biotinylated proteins were captured, eluted and analyzed by western blotting with antibodies against biotin, PS1, nicastrin, PEN-2 and APH-1.
# [2] = biological target: T2, γ-secretase (Homo sapiens (Human), UniProt P49768); test: HTRF γ-secretase assay with Sb4 substrate; format: biochemical; settings: for pilot screen result: 10 μM, 1536-well
# From the text: We set out to transfer the assay conditions obtained with the ECL method to an HTRF detection based format (FIG. 10b). The HTRF detection mixture consisted of mouse G2-10 antibody for recognition of the C-terminal epitope of the cleaved product, a Europium-labeled anti-mouse antibody (commonly, an antibody is conjugated with a cryptate ligand that forms a three dimensional coordination cage structure surrounding a lanthanide such as Eu^3+), along with Streptavidin conjugated to a trimeric form of the fluorescent protein allophycocyanin referred to as XL665. Cleavage of Sb4 substrate allows G2-10 mouse antibody to bind to the Aβ40-processed site on the cleaved substrate. The Steptavidin-XL665 conjugate binds directly with the biotin moiety on the N-terminal end of the Sb4 derived product. The anti-mouse Europium antibody targets to the G2-10 antibody, bringing all of these entities into close proximity. The Europium and XL665 reagents are a compatible pair of donor-acceptor fluorophores, and excitation of Europium at 337 nm results in fluorescence energy resonance transfer (FRET) to XL665 which fluoresces at 665 nm (FIG. 10b).
# Human γ-secretase was prepared from HeLa cell membranes as described previously (Li et al., 2000). Briefly, HeLa cell pellet was resuspended in 1×MES buffer (50 mM MES, pH 6.0, 150 mM KCl, 5 mM CaCl2, 5 mM MgCl2) and treated with ‘complete’ protease inhibitor (Boehringer Mannheim). The resuspended pellet was mechanically homogenized by passing the cells through the French Press (Spectronic Instruments), and subsequently spun down at 800 g to remove cell debris and nuclei. Next, the supernatants were spun at 100,000 g in order to pellet the membranes. The pelleted membranes were resuspended in 1×MES buffer to approximately 12 mg/ml. This entire procedure was performed at 4° C. HeLa membranes were solubilized using 1% CHAPSO detergent in 1×MES buffer with protease inhibitors. After incubating for 1 hr at 4° C., the membrane was spun down at 100,000 g and the supernatants were collected and stored at −70° C. The collected fraction is defined as solubilized γ-secretase.
# HTRF conditions were initially optimized in a 384-well format using a final volume of 20 μl. The high control for this assay was defined as the observed γ-secretase activity in the presence of 1% DMSO (v/v) and the low control as the activity observed when including 100 nM final concentration of Compound E (v/v). First, we determined a tolerable DMSO concentration that would not interfere with γ-secretase activity. Even with 3% DMSO (v/v) present in the assay mixture, there was virtually no effect on the γ-secretase activity (FIG. 11a), which was critical as delivery of library screening compounds required a final concentration of 2% DMSO (v/v) in the γ-secretase reaction. Next, we titrated the HTRF mixture components in an effort to minimize reagent costs for use in high throughput screening. […] Additionally, we varied Europium conjugated anti-mouse antibody and determined that 1 nM of this reagent in the HTRF mixture was sufficient for our assay conditions even though the signal continued to increase with higher concentrations of the anti-mouse antibody (FIG. 11c).
# We have further miniaturized the HTRF assay from the established 384-well format to a 1536-well platform enabling more efficient screening of large chemical libraries. […] Based on these optimization experiments, we set our final assay conditions at 0.3 nM G2-10, 1 nM anti-mouse antibody, 15 nM Streptavidin-XL665, and proceeded with the assay at 10 μl final volume (5 μl γ-secretase mix+5 μl HTRF mix) in the 1536-well format for screening.
# The pilot assay was performed in duplicate on two separate days to account for any day-to-day variability. […]
# [3] = biological target: T1, γ-secretase; test: In vitro γ-secretase assay, HeLa membrane, APP-derived substrates, ECL detection; format: biochemical; settings: for γ-secretase activity %: cleavage of the substrate at the Aβ40 site, HeLa membrane, G2-10 antibody; for effect on γ-secretase processing of the S3 substrate (in trans): peptide 0.1, 1 and 10 μM, S3 0.5, 1 and 2 μM; for inhibition of X40 production / suppression of Aβ production: 1 μM βCTF substrate
# Method: The recombinant proteins were incubated with γ-secretase (40 μg/ml) in the presence or absence of 1 μM γ-secretase inhibitor L-685,458 (CAS [292632-98-5], shown below). The reaction mixture contains 0.25% 3[(3-cholamidopropyl) dimethylammonio]-2-hydroxypropanesulfonic acid (CHAPSO), 0.1 μg/μl BSA, protease inhibitor, 50 mM PIPES, pH 7.0, 5 mM MgCl2, 5 mM CaCl2 and 150 mM KCl. The reaction was incubated for 2.5 hr at 37° C. and stopped by adding RIPA buffer (150 mM NaCl, 1.0% NP-40, 0.5% sodium
# [drawing 1] deoxycholate, 0.1% SDS, 50 mM Tris HCl, pH 8.0). The products were detected with various antibody combinations as previously described (Lai et al., 2003; J. Biol. Chem., 278: 22475-22481; Li et al., 2000, Proc. Natl. Acad. Sci. USA, 97: 6138-6143; Yin et al., 2007, J. Biol. Chem., 282:23639-23644) using electrochemiluminescence (ECL). The amount of product was determined using synthetic peptide or recombinant standards. The Km and Vmax were determined from the Michaelis-Menten equation Michaelis-Menten Kinetics (ν=Vm[S]/([…]; ν: initial rate; Vm: maximum velocity; Km: the Michaelis-Menten constant, S: substrate). P-values were calculated from Student t-test. 7.1.5 Cell-Based Aβ Production Assay and Western Blot
# [4] = biological target: T2, γ-secretase; test: In vitro γ-secretase assay, solubilized γ-secretase, ECL; format: biochemical; settings: substrate 1 μM, background with Compound E
# From the text: The γ-secretase cleaved Aβ product derived from C100Flag substrate was detected by a pair of antibodies (biotinylated 4G8 and ruthenylated G2-10*) while Sb4 cleaved product was detected by ruthenylated G2-10* alone (FIG. 10a) and quantified using electrochemiluminescence (ECL) technology.
# An in vitro assay was based on the one previously reported by Li et al. (2000), except we utilized Sb4 substrate that eliminated the need for biotinylated antibody. […] All assays incorporate ruthenylated G2-10* antibody to detect 40-site cleavage of APP or recombinant Sb4 substrate and quantitated activity by measuring ECL.
molecule,measurement,setting,value
CC(C)C[C@H](N)C(=O)N[C@H](C(=O)N[C@@H](Cc1ccccc1)C(=O)N[C@@H](Cc1ccc(C(=O)c2ccccc2)cc1)C(=O)N[C@@H](C)C(=O)N[C@@H](CCC(=O)O)C(=O)N[C@@H](CC(=O)O)C(=O)N[C@@H](CCCCNC(=O)CCCC[C@@H]1SC[C@@H]2NC(=O)N[C@@H]21)C(=O)O)C(C)C [Aβ17-23BPA^20-biotin] (H-LVF[Bpa]AEDK(Biotin)-OH; N-terminus and C-terminus assumed),"photolabeled bands, PS1",[1],co-migrated with PS1-CTF and PS1-NTF
same,photolabeling of PEN-2 and APH1a,[1],not PEN-2 or APH1a
same,photolabeling of nicastrin,[1],labels nicastrin
N.N.[Cl][Pt][Cl] [Cisplatin],pilot screen result,[2],active compound
CC(C)CC(=O)N[C@H](C(=O)N[C@H](C(=O)N[C@@H](CC(C)C)[C@@H](O)CC(=O)N[C@@H](C)C(=O)N[C@@H](CC(C)C)[C@@H](O)CC(=O)O)C(C)C)C(C)C [Pepstatin A] (Isovaleryl-VV[Sta]A[Sta]-OH),pilot screen result,[2],active compound
same,IC50,"[2]; dose response, read-out: IC50, HTRF assay",6.43 µM
O=C(O)CCCC[C@@H]1SC[C@@H]2NC(=O)N[C@@H]21 [biotin],pilot screen result,[2],active hit
AviTag-KGAIIGLMVGGVVIATVIVITLVMLKKK [S1],γ-secretase activity %,[3],100 ± 4.2%
AviTag-LVFFAEDVGSNKGAIIGLMVGGVVIATVIVITLVMLKKK [S2],γ-secretase activity %,[3],None
"Aβ1-7: Aβ1-16 derived synthetic peptide (DAEFRHD; Amyloid-beta protein 42; UniProt P05067 672-678, looked up, fragment)","inhibition of γ-secretase activity, APP processing",[3],no inhibition
same,effect on γ-secretase processing of the S3 substrate (in trans),[3],no difference
"Aβ8-16: Aβ1-16 derived synthetic peptide (SGYEVHHQK; Amyloid-beta protein 42; UniProt P05067 679-687, looked up, fragment)",effect on γ-secretase processing of the S3 substrate (in trans),[3],no difference
C100Flag: truncated APP protein used in previously published γ-secretase assays,ratio of signal to background,[4],7 to 1
"P3-42: synthetic P3 peptide Aβ17-42 (LVFFAEDVGSNKGAIIGLMVGGVVIA; Amyloid-beta protein 42; UniProt P05067 688-713, looked up, fragment)",inhibition of Aβ40 production,"[3]; 1, 3, 10 and 30 nM, βCTF or βCTFΔ substrate",did not inhibit
αCTF: recombinant α-secretase cleaved APP C-terminal fragment,inhibition of X40 production,[3]; 0.25 μM,24%
same,suppression of Aβ production,[3]; 0.25 μM,66%
same,inhibition of X40 production,[3]; 0.5 μM,32%
same,suppression of Aβ production,[3]; 0.5 μM,71%
same,inhibition of X40 production,[3]; 1.0 μM,60%
same,suppression of Aβ production,[3]; 1.0 μM,82%
βCTF: recombinant β-secretase cleaved APP C-terminal fragment,Vmax,"[3]; Aβ40 product, 6E10/G2-10, ECL",16 ± 1 min⁻¹ µg⁻¹
same,Km,"[3]; Aβ40 product, 6E10/G2-10, ECL, read-out: apparent Km",0.47 ± 0.09 µM
same,rate of γ-secretase hydrolysis relative to αCTF-FLAG,"[3]; X40 production, 4G8/G2-10 antibodies",12 fold
B1,γ-secretase activity %,[3],None
B2,ratio of signal to background,[4],93 to 1
